According to paper PMC9561270, “Phosphorylation of the auxin signaling transcriptional repressor IAA15 by MPKs is required for the suppression of root development under drought stress in Arabidopsis” (Nucleic Acids Research, 2022):

Assays:
His-MPK3 = molecular target: T1, His-MPK3 (Arabidopsis thaliana, UniProt Q39023 1-370); experiment: pull-down; 2 ug GST or GST-IAA15 on glutathione-Sepharose 4B beads; 1 ug His-MPK added, overnight at 4 C; 50 mM Tris-HCl pH 7.5, 200 mM NaCl, 1% Triton X-100, 0.1 mM EDTA, 0.5 mM DTT; detected with anti-His antibodies; conditions: both partners purified
T1 construct: also called His-fused MPK3; source: E. coli M15, purified (Ni-NTA agarose); not shown: His, N-terminal, kept
T1 sequence (looked up): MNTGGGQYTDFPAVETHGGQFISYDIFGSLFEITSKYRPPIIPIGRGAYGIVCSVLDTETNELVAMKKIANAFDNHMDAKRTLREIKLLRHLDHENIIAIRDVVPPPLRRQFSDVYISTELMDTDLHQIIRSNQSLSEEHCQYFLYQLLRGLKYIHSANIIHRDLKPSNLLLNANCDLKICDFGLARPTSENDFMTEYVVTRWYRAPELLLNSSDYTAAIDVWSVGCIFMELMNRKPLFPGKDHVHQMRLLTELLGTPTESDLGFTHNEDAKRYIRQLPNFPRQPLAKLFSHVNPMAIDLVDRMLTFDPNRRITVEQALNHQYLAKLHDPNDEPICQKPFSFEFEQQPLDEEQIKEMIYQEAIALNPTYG

His-MPK6 = molecular target: T2, His-MPK6 (Arabidopsis thaliana, UniProt Q39026 1-395); experiment: as above; conditions: both partners purified
T2 construct: also called His-fused MPK6; source: E. coli M15, purified (Ni-NTA agarose); not shown: His, N-terminal, kept
T2 sequence (Q39026 whole entry, the tested form may be a part): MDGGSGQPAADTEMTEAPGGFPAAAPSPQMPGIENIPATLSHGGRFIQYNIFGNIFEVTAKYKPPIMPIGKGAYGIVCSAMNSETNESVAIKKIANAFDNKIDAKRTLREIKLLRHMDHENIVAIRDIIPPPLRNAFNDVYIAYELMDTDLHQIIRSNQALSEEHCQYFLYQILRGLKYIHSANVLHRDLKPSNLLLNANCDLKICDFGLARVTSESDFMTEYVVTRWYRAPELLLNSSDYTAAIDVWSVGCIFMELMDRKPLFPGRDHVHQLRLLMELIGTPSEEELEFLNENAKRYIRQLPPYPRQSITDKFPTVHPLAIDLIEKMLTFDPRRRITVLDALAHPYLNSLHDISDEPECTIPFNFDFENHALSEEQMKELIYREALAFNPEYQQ

B1: GST-IAA15 (natural protein, Arabidopsis thaliana, UniProt Q9C966 1-179, looked up)
chain: MSPEEYVRVWPDSGDLGGTELTLALPGTPTNASEGPKKFGNKRRFLETVDLKLGEAHENNYISSMVTNDQLVGWPPVATARKTVRRKYVKVALDGAAYLRKVDLGMYDCYGQLFTALENMFQGIITICRVTELERKGEFVATYEDKDGDLMLVGDVPWMMFVESCKRMRLMKTGDAIGL
notes: Auxin-responsive protein IAA15, Arabidopsis thaliana, At1g80390, full length, cloned into pGEX-4T-1; also called GST-fused IAA15; GST-IAA15^WT; source: E. coli BL21 (DE3), purified (glutathione Sepharose-4B); not shown: GST, N-terminal, kept
B1: binds (His-MPK3); binds (His-MPK6).
